Experimental data from patent US20240067729A1 (PALLEON PHARMACEUTICALS, published 2024).
Where two headings read alike, the source gives them in different places.

Assays:
[1] = molecular target: T1, cynomolgus PD-L1, his tagged (cPD-L1-his) (cynomolgus (Macaca fascicularis), UniProt G7PSE7 19-238); test: BLI (ForteBio Octet), cPD-L1-his
T1 construct: also called cyPD-L1-His; Cyno PD-L1
Protocol: (§1) Characterization of chimeric anti-PD-L1 antibodies. ForteBio octet binding of purified chimeric antibodies and recombinant hPD-L1-his and cPD-L1-his was measured. Chimeric human antibodies were captured on AHC (Anti-human IgG-Capture) Biosensor, hPD-L1-his or cPD-L1-his analytes were titrated from 100 nM in a 2× series dilution. The buffer reference was subtracted from the signal and aligned to the baseline. KD, Kon and Koff values were generated using 1:1 fitting model as described above. […]

[2] = molecular target: T2, human PD-L1, his tagged (hPD-L1-his) (human, UniProt Q9NZQ7 19-238, limits assumed); test: BLI (ForteBio Octet), hPD-L1-his
T2 construct: also called huPD-L1-His; recombinant human PD-L1; not shown: his tag
T2 sequence (Q9NZQ7 19-238 limits assumed): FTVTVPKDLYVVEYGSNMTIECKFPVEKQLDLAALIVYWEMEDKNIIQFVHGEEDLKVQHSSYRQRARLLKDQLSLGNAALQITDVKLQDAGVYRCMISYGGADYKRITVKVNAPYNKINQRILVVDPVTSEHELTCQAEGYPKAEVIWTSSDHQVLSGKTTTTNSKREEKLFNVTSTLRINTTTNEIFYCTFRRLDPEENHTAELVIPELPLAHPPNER
Protocol: as §1

[3] = molecular target: T2, human PD-L1, his tagged (hPD-L1-his); test: BLI (ForteBio Octet), hPD-L1-his; remark: listed apart in the source
Protocol: Characterization of chimeric anti-PD-L1 antibodies. ForteBio octet binding of purified chimeric antibodies and recombinant hPD-L1-his and cPD-L1-his was measured. Chimeric human antibodies were captured on AHC (Anti-human IgG-Capture) Biosensor, hPD-L1-his or cPD-L1-his analytes were titrated from 100 nM in a 2× series dilution. The buffer reference was subtracted from the signal and aligned to the baseline. KD, Kon and Koff values were generated using 1:1 fitting model as described above.
Selected h769 antibodies were tested in the blocking ELISA as described in Example 3 herein. […] Selected h769 humanized PD-L1 antibodies were characterized following removal of the deamidation motif in CDR-L3. FIG. 25 depicts the ForteBio octet binding of purified humanized antibodies and recombinant hPD-L1-his was measured.

[4] = molecular target: T1, cynomolgus PD-L1, his tagged …; test: ELISA on cynomolgus PD-L1
[5] = molecular target: T1, cynomolgus PD-L1, his tagged …; test: BLI (ForteBio Octet), mouse IgG on AMC sensor, cPD-L1-his analyte, 1:1 fit
Protocol: (§2) Screening of purified hybridoma antibodies. ForteBio octet binding of purified antibodies to recombinant hPD-L1-his and cPD-L1-his was measured. Mouse IgGs purified from hybridoma supernatant were captured on AMC (Anti-mouse IgG-Capture) Biosensor. hPD-L1-his or cPD-L1-his analytes were titrated from 100 nM in a 2× series dilution. The signal was subtracted with buffer reference and aligned to the baseline. KD, Kon and Koff values were generated using a 1:1 fitting model. […] The X-axes represent assay time in seconds, and the Y-axes represent binding signal on the biosensor. Each line represents the real time signal of antigen association and dissociation at the given antigen concentration in the assay (e.g., the top line represents the signal of the highest antigen concentration in the assay, the second top line represents the second highest concentration in the assay). The vertical dashed line represents the time point that the assay was moved from association step to the dissociation step. All the ForteBio/Octet assays were using standard/conventional settings and the graphs provided in the figures will be understood by one of skill in the art.

[6] = molecular target: T2, human PD-L1, his tagged (hPD-L1-his); test: BLI (ForteBio Octet), mouse IgG on AMC sensor, hPD-L1-his analyte, 1:1 fit
Protocol: as §2

[7] = molecular target: T3, human PD-L1 Fc fusion (hPD-L1-Fc) (human, UniProt Q9NZQ7 19-238, limits assumed); test: blocking ELISA: antibody titrated + biotin-hPD-1-Fc 1 ug/mL on coated hPD-L1-Fc
T3 construct: not shown: Fc part
T3 sequence (Q9NZQ7 19-238 limits assumed): as above
Description: The plate was developed with TMB and Stop buffer, the absorbance at 450 nm was read using SpectraMax plate reader. The A450 absorbance was normalized to the control that without antibody for the percentage values. The curve and IC₅₀ were generated using GraphPad Prism software.

T1 sequence (G7PSE7 entry or part of it limits assumed, form in doubt): as the sequence (Q9NZQ7 19-238 limits assumed) above, with A33T, A34S, S62N, R68Q, Q82R, F173L, T185A, T192I, H215L counted along it

Binder	ELISA cyno, Fold over Bkg [4] [fold over background]	Kd [5] [nM]	Kd [6] [nM]	IC50 [7] [nM]	also measured
h769-IF3 (humanized 769-hIgG1 variant) (antibody, V domains shown) VH: EVQLVQSGAEVKKPGATVKISCKVSGFNIKDTYMHWVQQAPGKGLEWMGLIDPANDNTIYAEKFQGRVTITADTSTDTAYMELSSLRSEDTAVYYCAREGYGGSYGEGYWGQGTLVTVSS VL: EIVMTQSPPTLSLSPGERVTLSCRASQSVSNDLSWYQQKPGQAPRLLIYYASIRFTGIPARFSGSGSGTDFTLTISSLQPEDFAVYYCQQDYNSPWTFGQGTKVEIK	–	–	–	–	Kd [1]: 2.92 nM; koff [1]: 0.000602 s⁻¹; kon [1]: 208000 M⁻¹ s⁻¹; Kd [2]: 2.64 nM; koff [2]: 0.000871 s⁻¹; kon [2]: 330000 M⁻¹ s⁻¹
h769-N93A (humanized 769-hIgG1 variant, N93A in CDR-L3) (antibody, V domains shown, Human IgG1) VH: EVQLVQSGAEVKKPGATVKISCKVSGFNIKDTYMHWVQQAPGKGLEWMGLIDPANDNTIYAEKFQGRVTITADTSTDTAYMELSSLRSEDTAVYYCAREGYGGSYGEGYWGQGTLVTVSS VL: EIVMTQSPPTLSLSPGERVTLSCRASQSVSNDLSWYQQKPGQAPRLLIYYASIRFTGIPARFSGSGSGTDFTLTISSLQPEDFAVYYCQQDYASPWTFGQGTKVEIK	–	–	–	–	Kd [3]: 1.46 nM; koff [3]: 0.000414 s⁻¹; kon [3]: 284000 M⁻¹ s⁻¹
h769-tm2 (humanized 769-hIgG1 variant) (antibody, V domains shown) VH: EVQLVQSGAEVKKPGATVKISCKVSGFNIKDTYMHWVQQAPGKGLEWMGLIDPANDNTIYAEKFQGRVTITADTSTDTAYMELSSLRSEDTAVYYCAREGYGGSYGEGYWGQGTLVTVSS VL: EIVMTQSPPTLSLSPGERVTLSCRASQSVSNDLSWYQQKPGQAPRLLIYYASIRFTGIPARFSGSGYGTDFTLTISSLQPEDFAVYYCQQDYNSPWTFGQGTKVEIK	–	–	–	–	Kd [1]: 3.01 nM; koff [1]: 0.000593 s⁻¹; kon [1]: 204000 M⁻¹ s⁻¹; Kd [2]: 2.48 nM; koff [2]: 0.000818 s⁻¹; kon [2]: 331000 M⁻¹ s⁻¹
h769-tm3 (humanized 769-hIgG1 variant) (antibody, V domains shown) VH: EVQLVQSGAEVKKPGATVKISCKVSGFNIKDTYMHWVQQAPGKGLEWMGLIDPANDNTIYAEKFQGRVTITADTSTDTAYMELSSLRSEDTAVYYCAREGYGGSYGEGYWGQGTLVTVSS VL: EIVMTQSPPTLSLSPGERVTLSCRASQSVSNDLSWYQQKPGQAPRLLIYYASIRFTGIPARFSGSGSGTDFTLTISSLQPEDFAVYFCQQDYNSPWTFGQGTKVEIK	–	–	–	–	Kd [1]: 3.11 nM; koff [1]: 0.00065 s⁻¹; kon [1]: 211000 M⁻¹ s⁻¹; Kd [2]: 2.95 nM; koff [2]: 0.000904 s⁻¹; kon [2]: 311000 M⁻¹ s⁻¹
PAL752 (hybridoma 4G6.H4) (antibody, V domains shown, Mouse IgG purified from hybridoma supernatant) VH: EVQLQESGAELARPGASVKLSCKASGHAFTSDSINWVKQRIGQGLEWIGEIYPRSGNPYYNEKFKGKATLTADKSSSTAYMELRSLTSEDSAVYFCATDYYGRYFDVWGTGTTVTVSS VL: DIQMTQSSFSFSVSLGDRVTIICKASEDIYNRLAWYQQKPGNTPRLLISGATSLETGVPSRFSGSGSGKDYTLSITSLQTEDVATYYCQQYWSTPWTFGGGTKLEIK	18.4	4.03	0.789	2.53	–
PAL759 (hybridoma 13F1.B7) (antibody, V domains shown, Mouse IgG purified from hybridoma supernatant) VH: EVQLQESGAELVRPGASVKLSCKASGYSFTDYYINWVKQRPGQGLEWIARIYPGSGNTYYNEKFKGKATLTAEKSSITAYMQLSSLTSEDSAVYFCARSYYYGSSYLFDYWGQGTTLTVSS VL: DILLTQSPAILSVSPGERVSFSCRASQSIGTSIHWYQQRTNGSPRLLIKYASESISGIPSRFSGSGSGTDFTLSINSVESEDIGDYYCQQSNNWPFTFGSGTKLEIK	13.1	–	1.14	4.64	–
PAL767 (hybridoma 1G7.A8) (antibody, V domains shown, Mouse IgG purified from hybridoma supernatant) VH: EVQLQESGPSLVKPSQTLSLTCSVTGDSITSGYWNWIRKFPGNKLEYMGYISYTGSTYYNPSLKRRISITRDTSKNQYYLQLNSVTTEDTATYYCASQGGWLQAMDYWGQGTSVTVSS VL: not shown	36.9	0.0577	0.803	0.81	–
PAL769 (hybridoma 2C1.C8) (antibody, V domains shown, Mouse IgG purified from hybridoma supernatant) VH: EVQLQESGAELVKPGASVTLSCTASGFNIKDTYMHWVKQRPEQGLEWIGRIDPANDNTKYDPKFQDKATITADTSSDTAYLRLSSLTSEDTAVYYCAREGYGGSYGEGYWGQGTTLTVSS VL: SIVMTQTPKFLLVSAGDRVTITCKASQSVSNDVIWYQQKPGQSPKLLIYYASIRFTGVPDRFAGSGYGTDFTFTINTVQAEDLAVYFCQQDYNSPWTFGGGTKLEIK	39.5	1.3	0.758	0.51	–
PAL771 (hybridoma 2D10.E2.B9) (antibody, V domains shown, Mouse IgG purified from hybridoma supernatant) VH: EVQLQESGAELVKPGASVKLSCTASGFNIKDTYMHWVKQRPEQGLEWIGRIDPANGNTKYDPKFPGKATITADTSSNTAYLQLSSLTSEDAAVYYCARPFNYRFYDVYYFDYWGQGTTLTVST VL: QIVLTQSPAIMSASPGEKVTMTCSASSSVSYMYWYQQKPGSSPRLLIYDTSNLASGVPLRFSGSGSGTSYSLTLSRMEAEDAATYYCQQWSTYPLTFGAGTKLELK	–	1.15	0.592	–	–
PAL785 (hybridoma 16G1.A5) (antibody, V domains shown, Mouse IgG purified from hybridoma supernatant) VH: EVQLQESGPELVKPGTSVKMSCKASGYTFTSYVMHWVKQRPGQGLEWIGYINPYNDGSKYNEKFKGKATLTSDTSSSTAYMELSSLTSEDSAVYYCAKQTLDFWGQGTSVTVST VL: DIVLTQSPASLAVSLGQRATISCRASESVEFYGTTLMQWYQQKPGQPPKLLIYAASNVESGVPARFSGSGSGTDFSLNIHPVEEGDIGMYFCQQSRKVPYTFGGGTKLEIK	4.98	0.642	1.02	0.68	–
PAL787(3D10) (hybridoma CKH-3D10) (antibody, V domains shown, Mouse IgG purified from hybridoma supernatant) VH: QVTLKESGPGILQPSQTLSLTCSFSGFSLSTYGLGVGWIRQPSGKGLEWLANIWWNDDKFYDSVLKSRLTISKDTSNNQVFLKISSVDTSETATYYCAQTLHYYDGIAWFAYWGQGTLVTVSA VL: DIVMTQSQNFMSTSVGDRVSVTCKASHYVGTFVAWYQQKPGQSPKALIFSTSYRHTGVPDRFTGSGSGTDFTLTISNVQSEDLADYFCQQYYNSPLTFGAGTKLELK	38.2	0.283	0.277	4.07	–
PAL788(3E3) (hybridoma CKH-3E3) (antibody, V domains shown, Mouse IgG purified from hybridoma supernatant) VH: QVQLQQPGAELVKPGASVKLSCKASGYTFTSNWMNWVKQRPGRGLEWIGRIHPSDSETHYHQKFKSKATLTVDKSSSTAYIQLSSLTSEDSAVYYCAHSSGDYGRDYWGQGTTLTVSS VL: NIVLTQSPASLAVSLGQRATISCRASESVDSYGNSFMHWYQQKPGQPPKLLIYLASNLQSGVPARFSGSGSRTDFTLTIDPVEADDAATYYCQQNNEDPWTFGGGTKLEIK	24.8	0.392	0.188	0.89	–
PAL771.2 (hybridoma 2D10.E2.H4) (antibody, V domains shown) VH: EVQLQESGAELVKPGASVKLSCTASGFNIKDTYMHWVKQRPEQGLEWIGRIDPANGNTKYDPKFPGKATITADTSSNTAYLQLSSLTSEDAAVYYCARPFNYRFYDVYYFDYWGQGTTLTVST VL: QIVLTQSPAIMSASPGEKVTMTCSASSSVSYMYWYQQKPGSSPRLLIYDTSNLASGVPLRFSGSGSGTSYSLTLSRMEAEDAATYYCQQWSTYPLTFGAGTKLELK	–	2.27	–	–	–
h769-N93 (humanized 769-hIgG1 variant keeping N93 in CDR-L3) (antibody, V domains shown) VH: EVQLVQSGAEVKKPGATVKISCKVSGFNIKDTYMHWVQQAPGKGLEWMGLIDPANDNTIYAEKFQGRVTITADTSTDTAYMELSSLRSEDTAVYYCAREGYGGSYGEGYWGQGTLVTVSS VL: EIVMTQSPPTLSLSPGERVTLSCRASQSVSNDLSWYQQKPGQAPRLLIYYASIRFTGIPARFSGSGSGTDFTLTISSLQPEDFAVYYCQQDYNSPWTFGQGTKVEIK	–	–	–	–	koff [3]: 0.00058 s⁻¹; kon [3]: 292000 M⁻¹ s⁻¹
